Laboratory results from the supplement of paper PMC7125110.
± gives the standard error. Fewer inactive variants are shown than the library holds.

B1: glmS ribozyme (parent)
chain: AUAAAAGCGCCAGAACUACAGAAAUGUAGUUGACGAGGAGGAGGUUUAUCGAAUUUUCGGCGGAUGCCUCCAAA

Assays:
Conditions in all cases: with glucosamine-6-phosphate
glucosamine-6-phosphate [1] = variants of: B1; experiment: self-cleavage kobs at 640 uM GlcN6P; higher = faster cleavage; RNA array
In short: (§1)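 Glucosamine-6-phosphate (40 μM to 10 mM) in HEPES/KCl/Mg(OAc)2 buffer was flowed over sequenced MiSeq chips, and tiles were imaged over ~14 h. Barcoded ribozyme variants there had been transcribed in situ by E. coli RNA polymerase and were tracked through a hybridised Cy3 probe at 37 °C. One- or two-exponential decay fits to per-tile medians, normalised to baseline and to non-cleaving reference variants, gave kobs. kcat and KM came from weighted Michaelis–Menten fits across concentrations.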

glucosamine-6-phosphate [2] = variants of: B1; experiment: self-cleavage kobs at 2500 uM GlcN6P; higher = faster cleavage; RNA array
In short: as §1

glucosamine-6-phosphate [3] = variants of: B1; experiment: self-cleavage kobs at 10000 uM GlcN6P; higher = faster cleavage; RNA array
In short: as §1

Row | Variant | self-cleavage kobs at 640 uM GlcN6P (glucosamine-6-phosphate [1]) [s⁻¹] | self-cleavage kobs at 2500 uM GlcN6P (glucosamine-6-phosphate [2]) [s⁻¹] | self-cleavage kobs at 10000 uM GlcN6P (glucosamine-6-phosphate [3]) [s⁻¹]
1 | A6G U56C C61G | < 1e-05 | < 1e-05 | –
2 | C11G U31G G35C C71U | < 1e-05 | < 1e-05 | –
3 | G32C G51C | < 1e-05 | < 1e-05 | –
4 | U30A G44C U45G A48C U57A | < 1e-05 | – | –
5 | A14G G35C A48U | < 1e-05 | – | –
6 | A36G A53U C68A C71G | 8.35e-05 ± 2e-05 | – | –
7 | C11A A33C A39G U45G | < 1e-05 | < 1e-05 | –
8 | G35U A39G G59U | < 1e-05 | – | –
9 | G32U U56A C67A | 0.000114 ± 2.4e-05 | 0.000294 ± 8.2e-05 | –
10 | A12C A14U U30A U69G | 9e-05 ± 3.5e-05 | – | –
11 | U57C C67U C68A | 8.67e-05 ± 4e-05 | – | –
12 | U31C G38A C71U | < 1e-05 | – | –
13 | C8U A48G A64G | < 1e-05 | – | –
14 | A36C U69A | 6.08e-05 ± 1.6e-05 | 0.000182 ± 4.6e-05 | –
15 | A42C G60C C70U | < 1e-05 | < 1e-05 | < 1e-05
16 | C11A A15G G32C A33U | < 1e-05 | – | –
17 | A14C U45A U56C | 8.23e-05 ± 3.9e-05 | 0.000421 ± 0.00012 | –

Row | Variant | self-cleavage kobs at 640 uM GlcN6P (glucosamine-6-phosphate [1]) [s⁻¹] | self-cleavage kobs at 2500 uM GlcN6P (glucosamine-6-phosphate [2]) [s⁻¹] | self-cleavage kobs at 10000 uM GlcN6P (glucosamine-6-phosphate [3]) [s⁻¹]
18 | A12G A52G G62U | < 1e-05 | < 1e-05 | –
19 | C8U G37C A52G | < 1e-05 | – | –
20 | A39G G51C U65C U69A C70A | < 1e-05 | < 1e-05 | –
21 | G7A A39C U56G C68G | < 1e-05 | < 1e-05 | –
22 | A12G G29A U30A U45G G62A C71U | < 1e-05 | < 1e-05 | –
23 | A6U C16U U47A | 6.84e-05 ± 2.1e-05 | 0.000103 ± 3.5e-05 | –
24 | G32A A39C G59A C67A | < 1e-05 | < 1e-05 | –
25 | A14U U46A C68U | 4.63e-05 ± 1.7e-05 | 0.000119 ± 2e-05 | –
26 | G32U C34G U69G | 8.49e-05 ± 2.2e-05 | – | –
27 | G32A G37C C61U C67U | < 1e-05 | – | –
28 | G9C G37C U46C C50G | < 1e-05 | < 1e-05 | –
29 | A15U C16U A39C | 5.94e-05 ± 1.6e-05 | – | –
30 | G35U G38A G51U | < 1e-05 | – | –
31 | G7U U30C U45A C71G | < 1e-05 | – | –
32 | G59A C61A | < 1e-05 | < 1e-05 | –
33 | G40C A42C A48C A52U | < 1e-05 | – | < 1e-05
34 | C16U U31A A33C U56G C68G | < 1e-05 | – | –
